Our source for the Kd values is paper PMC2719619, “Efficient, chemoselective synthesis of immunomicelles using single-domain antibodies with a C-terminal thioester” (BMC Biotechnology, 2009).

Experiment [1] deals with T1, Glutathione-S-transferase from Schistosoma japonicum (Schistosoma japonicum, UniProt P08515 = GST).
T1 construct: GST of Schistosoma japonicum (printed as 'glutathione-S from Schistosoma japonicum'); recombinant from the vector pGEX-4T-2 in the selection; GST from pGEX-4T-2 would carry some residues of the vector's linker at its C-terminus; also called GST
T1 sequence (P08515 whole entry, looked up): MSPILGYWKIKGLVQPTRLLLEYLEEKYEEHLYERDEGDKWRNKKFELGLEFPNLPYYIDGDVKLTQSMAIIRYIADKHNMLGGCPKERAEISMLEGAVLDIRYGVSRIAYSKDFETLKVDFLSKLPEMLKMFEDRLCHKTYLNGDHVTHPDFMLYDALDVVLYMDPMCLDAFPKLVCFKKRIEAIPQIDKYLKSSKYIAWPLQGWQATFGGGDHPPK
The experiment is described as follows: ELISA. To be noted: both partners purified.

The target of experiment [2] is T1, Glutathione-S-transferase from …. The experiment is described as follows: SPR; GST immobilised on a CM5 chip by EDC/NHS (160 RU), 0-500 nM sdAb injected, 25°C, PBS with 0.05% Tween-20, 30 μL/min; steady state responses fitted to a one-site binding model; apparent. To be noted: both partners purified.

B1: sdAb-aGST-MESNA (llama single-domain antibody against GST with a C-terminal MESNA thioester) (VHH)
VHH: QVQLQDSGGGIVQPGGSLRLSCAGSGFSLDHYAIGWFRQAPGKRRELVASITSGGTIRYADSVKDRFTISRDNAKNRVYLQMNSLKPEDTAVYYCSARAKFSTSYDYWGQGTQVTVSS
notes: llama single-domain antibody from a naive phage display library, clone C11 of vector pHENIX sdAb-α GST C11; A mix of species that differ in how much of the pelB leader is left (LC-MS: calcd. 19632, 19501, 18175, 18062 Da); One conserved disulfide bond; also called sdAb-α GST-MESNA; sdAb-GST; source: E. coli BL21 (DE3), pTXB1, periplasm; purified on a chitin column, cleaved from the intein with …
For the molecule B1, the Kd in experiment [1] came to 77 nM; in experiment [2] it was 116 nM.
